Laboratory results as given in article PMC9772344.

Key:
Conditions in all cases: transfected HeLa cells; n = 3 per group; parent: est. 1.0; read off a plot
[1] = target: Orai1 (UniProt Q96D31); assay: Co-IP (GLT-1 capture antibody, immunoblot for Orai1, band quantification)
[2] = target: stromal-interacting molecule 1 (STIM1) (UniProt Q13586); assay: Co-IP (GLT-1 capture antibody, immunoblot for STIM1, band quantification)
[3] = target: stromal-interacting molecule 1 (STIM1) (UniProt Q13586); assay: Co-IP (STIM1 capture antibody, immunoblot for GLT-1, band quantification)

Sequence of glutamate transporter GLT-1 (excitatory amino acid transporter 2, EAAT2), WT plasmid (P43006 whole entry, stated change not applied): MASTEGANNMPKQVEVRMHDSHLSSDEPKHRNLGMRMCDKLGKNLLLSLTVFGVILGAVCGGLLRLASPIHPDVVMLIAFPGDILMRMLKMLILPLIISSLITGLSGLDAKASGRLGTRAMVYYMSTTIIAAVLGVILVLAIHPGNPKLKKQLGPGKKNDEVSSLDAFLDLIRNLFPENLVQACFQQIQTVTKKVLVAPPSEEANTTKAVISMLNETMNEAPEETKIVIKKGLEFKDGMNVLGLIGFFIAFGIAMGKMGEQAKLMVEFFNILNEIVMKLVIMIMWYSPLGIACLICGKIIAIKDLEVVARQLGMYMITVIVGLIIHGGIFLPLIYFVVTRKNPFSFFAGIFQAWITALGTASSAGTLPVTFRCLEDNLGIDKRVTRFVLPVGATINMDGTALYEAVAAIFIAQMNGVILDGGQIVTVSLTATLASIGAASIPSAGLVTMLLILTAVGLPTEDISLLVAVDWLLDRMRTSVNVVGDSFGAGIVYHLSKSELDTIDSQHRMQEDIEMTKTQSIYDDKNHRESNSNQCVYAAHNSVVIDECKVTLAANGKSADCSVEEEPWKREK
Sequence of stromal-interacting molecule 1 (STIM1) (Q13586 23-685): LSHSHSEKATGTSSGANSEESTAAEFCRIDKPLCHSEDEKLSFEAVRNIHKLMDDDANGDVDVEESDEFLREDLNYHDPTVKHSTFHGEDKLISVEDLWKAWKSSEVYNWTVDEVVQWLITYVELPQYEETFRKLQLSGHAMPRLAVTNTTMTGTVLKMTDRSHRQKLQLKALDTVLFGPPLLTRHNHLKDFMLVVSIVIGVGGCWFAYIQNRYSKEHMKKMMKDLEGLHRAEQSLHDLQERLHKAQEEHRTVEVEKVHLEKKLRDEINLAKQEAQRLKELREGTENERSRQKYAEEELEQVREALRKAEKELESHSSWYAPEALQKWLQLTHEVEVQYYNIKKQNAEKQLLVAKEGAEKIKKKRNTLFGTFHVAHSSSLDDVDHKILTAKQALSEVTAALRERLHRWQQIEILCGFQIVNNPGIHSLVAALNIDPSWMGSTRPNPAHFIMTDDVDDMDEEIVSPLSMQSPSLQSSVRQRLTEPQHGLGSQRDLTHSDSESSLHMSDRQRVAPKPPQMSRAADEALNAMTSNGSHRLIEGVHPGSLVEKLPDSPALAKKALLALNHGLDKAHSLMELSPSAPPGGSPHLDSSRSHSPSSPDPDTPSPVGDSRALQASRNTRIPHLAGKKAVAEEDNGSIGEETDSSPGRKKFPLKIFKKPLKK
Sequence of Orai1 (Q96D31 whole entry): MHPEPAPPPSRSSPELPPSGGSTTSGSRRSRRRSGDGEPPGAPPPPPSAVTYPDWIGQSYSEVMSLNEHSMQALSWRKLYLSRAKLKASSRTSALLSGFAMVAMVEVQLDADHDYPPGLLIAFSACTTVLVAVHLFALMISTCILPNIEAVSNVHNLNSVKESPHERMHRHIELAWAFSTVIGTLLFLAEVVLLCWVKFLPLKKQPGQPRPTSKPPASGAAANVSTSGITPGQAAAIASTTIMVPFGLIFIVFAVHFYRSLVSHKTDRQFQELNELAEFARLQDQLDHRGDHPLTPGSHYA

- response (relative band intensity) [1]: 0.15
- response (relative band intensity) [2]: 0.1
- response (relative band intensity) [3]: 0.1
Substance: glutamate transporter GLT-1 (excitatory amino acid transporter 2, EAAT2), WT plasmid (from UniProt P43006) P289R
